Targets include RamR I141T (Klebsiella pneumoniae, UniProt A0A0H3GJQ8 1-194, I141T); RamR WT (Klebsiella pneumoniae, UniProt A0A0H3GJQ8 1-194); RamR L58P (Klebsiella pneumoniae, UniProt A0A0H3GJQ8 1-194, L58P).
What all share (experiment): EMSA; 2 uM protein, 200 nM DNA
Holding throughout (settings): protein: recombinant; tags: N-terminal His6; chain copies: 2; label: none (NA-Green stain); blunt

B1: ramA promoter probe (ramA P-F/ramA P-R) (dsDNA)
DNA 1: AAAACGAATCGTCCTGCATGCCCAGGCAGCACCGCGCGAGCGCGCAGGTCGTCGGCAGCCTGAGCCGTTTCATCCGGCATCATGTGGATATATTTCCAGTC
DNA 2: GACTGGAAATATATCCACATGATGCCGGATGAAACGGCTCAGGCTGCCGACGACCTGCGCGCTCGCGCGGTGCTGCCTGGGCATGCAGGACGATTCGTTTT
B1: the values for the binding result with RamR I141T, with RamR WT and with RamR L58P were “binds”, “binds” and “no binding”, respectively.

The values are drawn from paper PMC12806483, “Dual role of ramR mutation in enhancing immune activation and elevating eravacycline resistance in Klebsiella pneumoniae”.
